Experimental findings from US6610541B2, “Recombinant, active caspases and uses thereof” (Thomas Jefferson University, priority 1998, dated 2003) are described below.

For one assay, the target named is T1, rev-caspase-3 (Homo sapiens, UniProt P42574).
T1 sequence (P42574 with tags, fused parts or gaps): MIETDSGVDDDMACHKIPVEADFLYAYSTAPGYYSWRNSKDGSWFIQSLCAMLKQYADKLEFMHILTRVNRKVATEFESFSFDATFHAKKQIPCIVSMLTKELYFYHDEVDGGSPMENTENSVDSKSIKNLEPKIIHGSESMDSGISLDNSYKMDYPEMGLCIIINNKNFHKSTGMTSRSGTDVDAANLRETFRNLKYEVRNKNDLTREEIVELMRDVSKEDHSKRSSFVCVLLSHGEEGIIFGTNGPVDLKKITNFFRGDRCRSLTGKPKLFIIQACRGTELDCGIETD
Description: Autocatalytic processing of in vitro translated rev-caspase-3 (SDS-PAGE/autoradiography). In kind it is biochemical. Details: T7-tag (15 residues) (N); made in house; host or cells: in vitro translation in rabbit reticulocyte lysate (TNT Kit, Promega). As for the experimental part: (§1) FIGS. 2B and C are scanned images of autoradiograms representing SDS-PAGE analysis of the autoprocessing of rev-caspase-3 and -6, respectively in the presence of varying levels of selected caspase inhibitors. Rev-caspase-3 (FIG. 2B) or rev-caspase-6 (FIG. 2C) were in vitro translated in the presence of increasing concentrations of DEVD-CHO […]; (SEQ ID NO:52), or zVAD-fmk (0-5 μM). The translation products were then analyzed as in FIG. 2A. WT, wild-type.
(§2) ^35S-labeled caspases (wild-type and rev-caspases) were obtained by in vitro translation in the presence of ^35S-methionine using a coupled transcription/translation system in rabbit reticulocyte lysate using TNT Kit (Promega) according to the manufacturer's recommendations.
(§3) To test the effect of selected caspase inhibitors on the autocatalytic activity of rev-caspase-3 and 6, the rev-caspases were translated as in Example 3, but in the presence of varying amounts of inhibitors.

The target of a further assay is T2, rev-caspase-6 (Homo sapiens, UniProt P55212).
T2 sequence (P55212 with tags, fused parts or gaps): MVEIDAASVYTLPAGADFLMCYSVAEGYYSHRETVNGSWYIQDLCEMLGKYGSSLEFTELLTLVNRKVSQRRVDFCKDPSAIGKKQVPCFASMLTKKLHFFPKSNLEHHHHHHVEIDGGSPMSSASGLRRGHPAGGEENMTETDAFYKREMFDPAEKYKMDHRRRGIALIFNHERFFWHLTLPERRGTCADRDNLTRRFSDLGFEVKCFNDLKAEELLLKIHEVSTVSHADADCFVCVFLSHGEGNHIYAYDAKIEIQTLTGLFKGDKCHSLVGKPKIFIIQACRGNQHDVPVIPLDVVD
Put plainly: Autocatalytic processing of in vitro translated rev-caspase-6 (SDS-PAGE/autoradiography). Format: biochemical. Details: T7-tag (15 residues) (N); made in house; host or cells: in vitro translation in rabbit reticulocyte lysate (TNT Kit, Promega). As to conditions: at the concentration used (zVAD-fmk 0-5 μM); p35 data not shown. As for the experimental part:
as §1, §2, §3

A further assay deals with human PARP. Put plainly: Cleavage of PARP by bacterially expressed caspases (Western blot). As to conditions: BL-21 bacterial extracts, 2 h at 37° C. In kind it is biochemical. As for the experimental part:
(§4) FIGS. 3A and B are scanned images representing the SDS-PAGE analysis of the ability of rev-caspase-3 (imaged by western blot) and -6 (imaged by autoradiogram) to cleave PARP and lamin, respectively. In FIG. 3A purified human PARP was incubated with buffer (lane 1) or BL-21 bacterial extracts prepared from bacteria transformed with caspase-3 (lane 2), rev-caspase-3 (lane 3), caspase-6 (lane 4), rev-caspase-6 (lane 5) constructs or empty pET28a vector (lane 6) for 2 h at 37° C. The reaction products were then analyzed by SDS-PAGE and Western blotting with anti-human PARP antibody. In FIG. 3B a cDNA encoding the C-terminus of lamin A (amino acids) which contain the caspase-6 cleavage site (VEIDA); (SEQ ID NO:116), was amplified by PCR and in vitro translated in the presence of ^35S-methionine. The labeled product was incubated with buffer (lane 1) or the BL-21 bacterial extracts listed above for 2 h at 37° C., and then analyzed by SDS-PAGE and autoradiography. The cleavage products are indicated to the right.
(§5) At limited caspase concentrations, poly(ADP) ribose polymerase (PARP) is specifically cleaved by caspase-3 and 7 but not other caspases. Similarly, lamin is specifically cleaved by caspase-6 but not other caspases. […]
On the technique in general: A western blot detects proteins with antibodies after separation by electrophoresis.

Assay [1] deals with T3, uncleavable rev-caspase-3 (Homo sapiens, UniProt P42574, D28A/D9A).
T3 construct: uncleavable rev-caspase-3 (B); made in house; host or cells: in vitro translation in rabbit reticulocyte lysate (TNT Kit, Promega)
T3 sequence (P42574 with tags, fused parts or gaps D9A/D28A): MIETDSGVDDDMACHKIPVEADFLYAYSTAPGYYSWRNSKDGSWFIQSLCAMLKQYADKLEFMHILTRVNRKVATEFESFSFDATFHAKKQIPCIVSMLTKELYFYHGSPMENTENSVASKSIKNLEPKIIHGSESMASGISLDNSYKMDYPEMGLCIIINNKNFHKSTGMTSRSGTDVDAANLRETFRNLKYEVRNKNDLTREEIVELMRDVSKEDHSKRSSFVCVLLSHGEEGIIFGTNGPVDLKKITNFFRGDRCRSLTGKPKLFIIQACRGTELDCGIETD
Description: In vitro translation of uncleavable rev-caspase-3: His6-T7-tag processing. In kind it is biochemical. The text has this: FIG. 5A is a scanned image of an autoradiogram representing SDS-PAGE analysis of the enzymatic activity of uncleavable rev-caspase-3. Uncleavable rev-caspase-3 was in vitro translated in the absence or the presence of increasing concentrations of DEVD-CHO (SEQ ID NO:52),. The translation product contains a cleavable 35 residues-long His6-T7-tag at its N-terminus. The active site mutant rev-caspase-3 (Rev C/A) was used as a control. The p32 cleavage product without the His6-T7-tag is indicated to the right.
^35S-labeled caspases (wild-type and rev-caspases) were obtained by in vitro translation in the presence of ^35S-methionine using a coupled transcription/translation system in rabbit reticulocyte lysate using TNT Kit (Promega) according to the manufacturer's recommendations. […] Because the in vitro translated products are present at very low concentration in the reaction mixture, the observed cleavage must be attributed to an intramolecular processing within the caspase heterotetramer.
However, to follow the activity of this molecule a cleavable 35 residue long His6-T7-tag N-terminal to the IETD (SEQ ID NO:53) site was introduced (see FIG. 1B). […] Nevertheless, the translated molecule was active as evident from its ability to cleave its T7-tag to form the p32 species (FIG. 5). In the presence of 400 nM DEVD-CHO (SEQ ID NO:52), processing of the T7-tag was inhibited and only the full length p34 species can be seen. […] Thus by mimicking the mature caspase structure, it is possible to design a contiguous active caspase molecules.

The test system of another assay is MCF-7 cells. Description: Induction of apoptosis in transfected MCF-7 cells (round blue apoptotic cells). Format: cell-based, human. As for the experimental part:
FIGS. 4A and B are bar diagrams representing the ability of rev-caspase-3 and -6 to induce apoptosis in MCF-7 cells. MCF-7 cells were transiently transfected with either rev-caspase-3 (FIG. 4A), or rev-caspase-6 (FIG. 4B) expression constructs in combination with 4-fold of CrmA, p35 or Bcl-2 expression constructs, or 20 μM zVAD-fmk. Cells transfected with an empty vector or the wild-type caspase-3 or -6 were used as controls.
To express the rev-caspases in mammalian cells and assay their apoptotic activity, they were amplified with the T7-tag primer and the LS-reverse primers using the pET28a constructs as templates, and subcloned into the mammalian double expression vector pRSC-LacZ (MacFarlane et al., J. Biol. Chem., 272: 25417-25420, 1997; Tsang et al., Bio/Technology, 22: 68, 1997). This vector allows the expression of lacZ under the Rous Sarcoma virus promoter, and the test cDNA under the CMV promoter. To assay for apoptosis, MCF-7 or 293 cells were transfected, using the method commercially available as the Lipofect Amine method (Life Technologies, Inc.), with the pRSC-LacZ constructs in the presence or absence of different apoptosis-inhibitors. 30 h after transfection cells were stained with β-galactosidase and examined for morphological signs of apoptosis. The percentage of round blue apoptotic cells (mean±SD) were represented as a function of total blue cells under each condition (n≧3).
To determine the apoptotic activity of rev-caspase-3 and 6 in vivo, the rev-caspases were expressed in human MCF-7 cells, transfected as explained above in Example 2.

The next assay deals with lamin A. Description: Cleavage of in vitro translated lamin A C-terminus by bacterially expressed caspases. In kind it is biochemical. Particulars: BL-21 bacterial extracts, 2 h at 37° C. How it is done: as §4, §5

Peptide text beside a SMILES is read from it. * marks the point of attachment. Cbz = O=C(OCc1ccccc1)*; CH2F = FC*

As for `COC(=O)C[C@H](NC(=O)[C@H](C)NC(=O)[C@@H](NC(=O)OCc1ccccc1)C(C)C)C(=O)CF` [z-VAD-fmk] (Cbz-Val-Ala-Asp(OMe)-CH2F), the “inhibitory effect on rev-caspase-3 autocatalytic activity compared with rev-caspase-6” value at rev-caspase-3 (at the concentration used (zVAD-fmk 0-5 μM), p35 data not shown) was “nearly an equal inhibitory effect”. Besides, on rev-caspase-3 (in vitro translation of rev-caspase-3), the “amount required relative to DEVD-CHO to obtain complete inhibition of caspase-3 activity” value is on record as approximately 10 fold. At rev-caspase-6, the “inhibitory effect on rev-caspase-6 autocatalytic activity compared with rev-caspase-3” value is “nearly an equal inhibitory effect”.

B1: wild-type caspase-3: wild-type human caspase-3 (SEQ ID NO:12) (protein)
chain: MENTENSVDSKSIKNLEPKIIHGSESMDSGISLDNSYKMDYPEMGLCIIINNKNFHKSTGMTSRSGTDVDAANLRETFRNLKYEVRNKNDLTREEIVELMRDVSKEDHSKRSSFVCVLLSHGEEGIIFGTNGPVDLKKITNFFRGDRCRSLTGKPKLFIIQACRGTELDCGIETDSGVDDDMACHKIPVDADFLYAYSTAPGYYSWRNSKDGSWFIQSLCAMLKQYADKLEFMHILTRVNRKVATEFESFSFDATFHAKKQIPCIVSMLTKELYFYH
For the molecule B1, the “cleavage of PARP” value in the assay on human PARP is reported as “efficiently cleaved PARP”.

B2: Noncleavable Rev-caspase-3: rev-caspase-3 with DEVD site removed and Asp9 and 28 mutated (SEQ ID NO:35) (protein)
chain: T3 sequence (P42574 with tags, fused parts or gaps D9A/D28A)
modifications: OTHER INFORMATION: Uncleavable Rev-Caspase-3 co ntructed from human caspase -3
Take B2: in assay [1], the “activity of translated molecule (cleaves its T7-tag to form the p32 species)” value is “active” and the “cleavage between the two subunits upon in vitro translation” value was “no evidence of cleavage between the two subunits”. The “induction of apoptosis on expression in cells” value in the assay on MCF-7 cells was “potently induced apoptosis”.

B3: wild-type caspase-6: wild-type human caspase-6 (SEQ ID NO:21) (protein)
chain: MSSASGLRRGHPAGGEENMTETDAFYKREMFDPAEKYKMDHRRRGIALIFNHERFFWHLTLPERRGTCADRDNLTRRFSDLGFEVKCFNDLKAEELLLKIHEVSTVSHADADCFVCVFLSHGEGNHIYAYDAKIEIQTLTGLFKGDKCHSLVGKPKIFIIQACRGNQHDVPVIPLDVVDNQTEKLDTNITEVDAASVYTLPAGADFLMCYSVAEGYYSHRETVNGSWYIQDLCEMLGKYGSSLEFTELLTLVNRKVSQRRVDFCKDPSAIGKKQVPCFASMLTKKLHFFPKSN
On to B3, for which the cleavage of lamin result in the assay on lamin A is reported as “efficiently cleaved lamin”.

B4: rev-caspase-3: contiguous caspase-3 with small subunit fused N-terminal to large subunit, DEVDG cleavage site between them (SEQ ID NO:34) (protein)
chain: T1 sequence (P42574 with tags, fused parts or gaps)
modifications: OTHER INFORMATION: Rev-Caspase-3 contructed fro m human caspase -3
B4: the “cleavage of PARP” value in the assay with human PARP was “efficiently cleaved PARP”. The “apoptosis in transfected cells” value with MCF-7 cells (30 h after transfection) is approximately 90%. Moreover, the “autocatalytic processing in the in vitro translation reaction (rev-caspase-3 constructs)” value with rev-caspase-3 (rabbit reticulocyte lysate, 35S-methionine) is on record as “able to undergo autocatalytic processing”.
